In the supplement of paper PMC10567573:
± gives the standard deviation.

Test: protein stability index of a GFP-peptide fusion (GPS, HEK-293T) (PSI 1-6); higher = more stable
[1] = treatment: DMSO, c terminus: a fixed tail appended
[2] = treatment: MLN4924 1 uM, 8 h, c terminus: a fixed tail appended
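Note: 24-mer peptide tiles fused after GFP, lentivirally expressed, FACS-sorted into six equal bins by GFP/DsRed ratio, decoded by Illumina sequencing, PSI is the read-weighted mean bin number.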

Sequence | protein stability index [1] | protein stability index [2] | protein stability index (treatment: DMSO, c terminus: native) | protein stability index (treatment: MLN4924 1 uM, 8 h, c terminus: native)
RTSTFDPSHSDNLLHGLNLLWRKQ [KLHL14] | 2.96 ± 0.17 | 2.94 ± 0.15 | – | –
FANGHTYHINSISVNSDCETYMSA [PPP2R2C] | 2.68 ± 0.69 | 2.63 ± 0.23 | – | –
ELLTCHSAEYVGHLRATEKMKTRE [HDAC6] | 3.82 ± 0.1 | – | – | –
WQLFLAHNIPLETIIPILQHLKYK [INTS3] | 2.83 ± 0.44 | 2.63 ± 0.59 | – | –
NNPISEHFHPTVIGESMYGDFEEA [TENT5C] | 4.89 ± 0.28 | 4.89 ± 0.17 | – | –
VLGEDVIVNDELYLNGASVLPHKS [GMPPB] | 4.23 ± 0.28 | 4.31 ± 0.18 | – | –
CDLADRELVVIIGWAKHIPGFSTL [ESRRG] | 2.92 ± 0.76 | 3.05 ± 0.56 | – | –
VQYGAGVACSETAPDLVLNAEMVQ [LOXL2] | 4.108 ± 0.007 | 4.47 ± 0.25 | – | –
LISKLPYIHFFHTVLKQIAPEYFE [DENND6A] | 2.64 ± 0.28 | 2.37 ± 0.63 | – | –
VHIETFTTRHGEVGSALHRESFTS [C10orf62] | 2.57 ± 0.35 | 2.47 ± 0.58 | – | –
PNAQYWSQFHSVRPQGPQLRQQQH [DNAJC4] | 3.62 ± 0.14 | 3.76 ± 0.29 | – | –
TAGQERFRALAPMYYRGSAAAIIV [RAB22A] | 2.26 ± 0.091 | 2.25 ± 0.26 | – | –
PESVEASPVVVEKSNSYPHQLYTS [KMT2E] | 4.34 ± 0.32 | 4.44 ± 0.26 | – | –
NPQSPPQDSSVTSKRNIKKGAVPR [HDAC6] | 4.99 ± 0.43 | 5.14 ± 0.38 | – | –
MAVLEEIQQELIKQEQSIISEYEK [RPAIN] | 4.28 ± 0.16 | 4.47 ± 0.16 | – | –
KEGGQAGSGQRVPALEEAPDSHQK [ELOA2] | 5.32 ± 0.21 | 5.47 ± 0.28 | – | –
DSVLKGMQAASSKMVSAEISENRK [SDE2] | 4.31 ± 0.23 | 4.68 ± 0.33 | – | –
YRMRNVHPKPKLVRVLESLLVSLV [CLCN6] | 2.44 ± 0.75 | 2.18 ± 0.35 | – | –
MSQTGSHPGRGLAGRWLWGAQPCL [ADAMTS4] | 3 ± 0.38 | 2.28 ± 0.87 | – | –
QAPGEENLLGEAAGGQDMADSMLM [HDAC6] | 5.36 ± 0.16 | 5.14 ± 0.36 | – | –
RDIRCSEDEKLCDPNTRPVGEKNC [ADAMTSL2] | 5.18 ± 0.28 | 5.35 ± 0.22 | – | –
KSMHREELEKSGHGQAGQRQDPRP [ZBED2] | 5.21 ± 0.13 | 5.2 ± 0.3 | – | –

Sequence | protein stability index [1] | protein stability index [2] | protein stability index (treatment: DMSO, c terminus: native) | protein stability index (treatment: MLN4924 1 uM, 8 h, c terminus: native)
VTKLCVQFLNDQISVQNYKQVCKI [KLHL14] | 2.76 ± 0.46 | 2.42 ± 0.56 | – | –
LKVGGILVMPLEEKLTKITRTGPS [PCMTD2] | 2.4 ± 0.21 | 2.16 ± 0.41 | – | –
SATALYRTDYSGRGELSARQMHLA [RAD51] | 3.26 ± 0.19 | 3.33 ± 0.21 | – | –
LWWIAPGDETAHRIDSQFLIGDTL [MYORG] | 1.95 ± 0.23 | 2.06 ± 0.43 | – | –
TRQNGIQTNKPALRAVRQRSEFTL [STX5] | 3.19 ± 0.32 | 3.37 ± 0.39 | – | –
MPPQPGIPQQQGMRPPMPPHGQYG [ZNF207] | 4.31 ± 0.2 | 4.43 ± 0.11 | – | –
CYVGATVLRGRLYAIAGYDGNSLL [KLHL12] | 3.2 ± 0.34 | 2.57 ± 0.68 | – | –
NLQDLCRIKIRQCIGLQNLKLLDE [ASB7] | 3.57 ± 0.24 | 3.56 ± 0.31 | – | –
TSTPEDKESGQEGVDSMAEEGTSD [SMARCE1] | 5.65 ± 0.25 | 5.51 ± 0.33 | – | –
TEPLTHWYQVRCLFQSPLFAKAGD [CARM1] | 2.11 ± 0.36 | 2.15 ± 0.61 | – | –
DRLVVTECQLTHSHPACPLEFAYY [ZSWIM9] | 2.53 ± 0.31 | 2.53 ± 0.32 | – | –
RGGSLLAGGGGFGGGSLSGGGGSR [KRT15] | 3.32 ± 1.1 | 3.95 ± 0.34 | – | –
SRAILQRVQAAAFGPGQTLLSSVH [ALKBH7] | 2.72 ± 0.14 | 2.65 ± 0.35 | – | –
SSQGVATPAITVSNSCPAELPNIK [TFE3] | 5 ± 0.11 | 4.96 ± 0.24 | – | –
GGFPIIRDQIFRYVHDPECVATTG [FBXO3] | 2.14 ± 0.29 | 2.7 ± 0.57 | – | –
SLYRDIRDIQDENQLLVADVKRLG [STX11] | 3.67 ± 0.33 | 3.58 ± 0.22 | – | –
GLGFASNAFQETWYWHGDVNSNKV [LOXL2] | 3.04 ± 0.12 | 2.44 ± 0.29 | – | –
NVPNVCRMYCSDLLNPNLKDTVIC [SPACA3] | 2.15 ± 0.3 | 2.31 ± 0.28 | – | –
SEYRSDIINAKSNDGWTPLHVAAH [ASB7] | 3.19 ± 0.38 | 3.27 ± 0.11 | – | –
AYMGHLDVVALLINHGAEVTCKDK [ANKRD44] | 2.23 ± 0.39 | 2.44 ± 0.19 | – | –
YLNGASVLPHKSIGESVPEPRIIM [GMPPB] | 2.79 ± 0.35 | 2.84 ± 0.34 | – | –
ILRLPLEHACTVRNLARSQSVKMK [TAF7L] | 2.92 ± 0.18 | 3.19 ± 0.34 | – | –

Sequence | protein stability index [1] | protein stability index [2] | protein stability index (treatment: DMSO, c terminus: native) | protein stability index (treatment: MLN4924 1 uM, 8 h, c terminus: native)
LGLVGYYIFRVANHQKDLFRRTDG [DHCR7] | 2.45 ± 0.2 | 2.6 ± 0.31 | – | –
AVARSPKRPAWGSRRFEAVGWWAL [POMT2] | 2.88 ± 0.97 | 2.49 ± 0.51 | – | –
AVQRFCLIGSLSKHESEYNTTRV [NETO1] | – | – | 2.85 ± 1.1 | 2.48 ± 0.6
IADLFVADQRSRMLSIFYFAIPVG [SPNS1] | 3.08 ± 0.65 | 2.94 ± 0.41 | – | –
LKNKCCPPPCKFGEGKLSKRLKHK [C22orf31] | 3.49 ± 0.21 | 3.74 ± 0.48 | – | –
LTISPKAARVGLLQYSTQVHTEFT [MATN2] | – | 2.436 ± 0.019 | – | –
EGHQAWIVGIVEKGNRTARIIDKP [SEPHS2] | 1.95 ± 0.24 | 2.42 ± 0.43 | – | –
NSMPVDNRNHNEGMVTRCIIEVLS [CHGB] | 2.77 ± 0.14 | 2.59 ± 0.3 | – | –
SEKETMQFLNDRLASYLEKVRQLE [KRT33B] | 2.55 ± 0.12 | 2.66 ± 0.28 | – | –
GPSVSEPPGLPRVSAYVDTTADLD [SPATS1] | 5.16 ± 0.41 | 5.18 ± 0.25 | – | –
VEEILDRENKRMADSLASKVTRLK [BET1L] | 4.31 ± 0.4 | 4.52 ± 0.23 | – | –
PEIEKADDHLQQPLQNQKILKRTG [ZNF649] | 5.3 ± 0.29 | 5.5 ± 0.24 | – | –
DRVLRAMLKAEETCAPSVSYFKCV [CCND1] | 2.29 ± 0.25 | 2.35 ± 0.4 | – | –
LKFHKLVNVTIHFRLKTINLQSLI [MCOLN1] | 3.17 ± 0.37 | 3.12 ± 0.31 | – | –
SQILQNKKHKNSQLDKNSEVYQEV [FAM98B] | 4.46 ± 0.42 | 4.81 ± 0.067 | – | –
MSNQQEKYEAQNIVNSTEESDDAF [IQUB] | 5.65 ± 0.18 | 5.47 ± 0.29 | – | –
QWLQSTSGSQRHMVGQKDSVILSV [TLE6] | 2.12 ± 0.093 | 2.29 ± 0.27 | – | –
CFPSTQKPTEPSVPVQPLLPESLA [FBF1] | 4.14 ± 0.23 | 4.16 ± 0.15 | – | –
LVVMAPSPSESSETVLALVNCISP [DENND6A] | 2.4 ± 0.32 | 2.15 ± 0.19 | – | –
ESPDEMELDELLKEISRKRRSIRY [PTPRD] | 3.05 ± 0.24 | 3.4 ± 0.069 | – | –
TLALLLNFLACLASFCVETNNGAG [SCAMP3] | 3.06 ± 0.2 | 2.88 ± 0.89 | – | –
